Results: patent US9200265B2, “Anti-cocaine compositions and treatment” (priority 2006, dated 2015)
“And” between values parts separate entries of the source, which are not always exact repeats. Equal values may be shown once. Read-outs that look alike come from different tables or passages of the source.

What was measured:
[1] = test system: WIN 35065-2 induced toxicity; experiment: WIN 35065-2 induced lethality in rats; conditions: i.p., rats
CocE [2] = molecular target: T1, CocE (Rhodococcus sp., UniProt Q9L9D7); experiment: Stabilization against 37° C.-induced formation of high molecular weight CocE aggregates (gel); assay type: physicochemical, Rhodococcus sp. MB 1; conditions: for 37° C.-induced formation of high molecular weight CocE aggregates: 0.1 mg/ml enzyme, mM range
T1 construct: generating a full-length CocE gene encoding the T172R mutation; His6 (C); made in house; host or cells: E. coli (pET-22b(+))
Procedure: Plasmids containing the mutations were transformed into E. coli BL21 cells and IPTG-induced enzyme was purified on Ni-Agarose. Expressed proteins were then tested for enzymatic activity and for thermostability at 37° C. Enzyme activity was measured using the spectrophotometric assay as described in Example 1. Thermostability was also tested via the spectrophotometric assay by pre-incubation of both wild-type and mutants at 37° C. for various times. Additionally, the nature of the thermo-instability of both the wild-type and T172R mutant was analyzed by polyacrylamide gel electrophoresis under denaturing and non-denaturing conditions. Briefly, mutant and wild-type enzyme at 0.1 mg/ml were incubated at 37° C. for various time-points, cooled to 4° C., mixed with SDS-loading dye containing-mercaptoethanol and run on 10% SDS-PAGE gels (denaturing conditions) or run on native 10% polyacrylamide gels (non-denaturing conditions) at 4° C. Gels were fixed with 10% methanol, 7% acetic acid for 30 minutes, and then stained with Sypro-Ruby protein gel stain (Molecular Probes, Invitrogen) for 3 hours. Protein staining was visualized under UV-light using an AlphaImager™ 3400 (Alpha Innotech). Finally, the exact melting temperature of both the wild-type and T172R mutant were determined by circular dichroism using a JASCO-810 spectropolarimeter driven by a JASCO V500/FP-750 analysis program for Windows. The CD spectra were measured in millidegrees and normalized against PBS buffer.
Cocaine esterase (CocE) cleaves cocaine to produce Benzoic acid and Ecgonine methyl ester. Briefly, alternative substrates and inhibitors of cocaine, as well as compounds able to thermostabilize the enzyme, were investigated generally by substituting amide and thiol analogues at the reactive ester bond, or removing the bond (for inhibitors), substituting benzoyl analogues in place of the benzoic acid leaving group, and/or removing or altering the methyl-ester group on the ecgonine portion of the molecule. As discussed below, it was determined that some substrates, products, and inhibitors stabilized thermal denaturation of wild type CocE, as well as prevented thermally-induced aggregation in gel electrophoresis.
Cocaine is the natural substrate of Cocaine esterase (CocE). Cocaine cleavage was monitored by a drop in absorbance at 240 nm. Cocaine (mM range) prevented 37° C.-induced formation of high molecular weight CocE aggregates (0.1 mg/ml enzyme concentrations) (see, e.g., FIG. 33). Cocaine (uM quantities) stabilized 37° C.-induced activity loss (see, e.g., FIG. 34), although the mechanism of this stabilization is complicated due to substrate inhibition at higher concentrations.

CocE [3] = molecular target: T1, CocE; experiment: Inhibition of CocE (cleavage of 4-nitrophenyl acetate); assay type: biochemical, Rhodococcus sp. MB 1
Procedure: Benzoic acid prevented 37° C.-induced formation of high molecular weight CocE aggregates (0.1 mg/ml enzyme concentrations) (see, e.g., FIG. 35). Benzoic acid (uM quantities) stabilized 37° C.-induced activity loss (see, e.g., FIG. 36), although the mechanism of this stabilization is complicated due to substrate inhibition at higher concentrations.
CocE catalyzes the cleavage of 4-nitrophenyl acetate (4NPA) to 4-nitrophenol (4NP) and acetate. The cleavage reaction was monitored by observation of product formation at 400 nm. Both 4NP and 4NPA (mM range) prevented 37° C.-induced formation of high molecular weight CocE aggregates (0.1 mg/ml enzyme concentrations).

[4] = against (-) cocaine; cited from earlier work
[5] = Low-UV CD spectra melt with CCA deconvolution; assay type: physicochemical; conditions: for #3 formation: accumulation of the fully melted protein; for #2 formation: formation of the intermediate state; for #1 melt: initial spectra melts, 0.2 mg/ml; for #2 melt: melt of the intermediate state
Procedure: Low-UV CD spectra data were obtained using an Aviv Spectropolarimeter Mode 400, with the help of Norma Greenfield, UMDNJ, using a 5-cell holder and 0.2 mg/ml protein concentrations. Raw data values obtained were blanked on control PBS, smoothed, and deconvoluted using the CCA algorithm as described by A. Perczel, K. Park, and G. D. Fasman, [Analysis of the circular dichroism spectrum of proteins using the convex constraint algorithm: a practical guide. Analytical Biochemistry 203, 83-93 (1992).] This algorithm finds the minimum number of curves needed to reconstruct a data set, and expresses the percentage each curve contributes to the data set as a function of temperature.
Below is presented a low UV CCA denconvolution analysis of CocE WT and 4 mutants, obtained in a single CD spectra melt using a 5-cell holder. The experiment was performed over the period of 8 hours, from 0-80° C.
Temperature dependent melting was observed between the wavelengths tested (200-250 nm), and the smoothed spectra for each mutant are shown in FIG. 29. […] Dose response analysis was used to approximate the temperature at which the initial spectra melts (1), the formation and melt of the intermediate state (2), and the accumulation of the fully melted protein (3).

[6] = Cocaine spectrophotometric assay (240 nm), Michaelis-Menten kinetics

Molecule | #3 formation [5] | #2 formation [5] [°C] | #1 melt [5] | #2 melt [5] | other results
COC(=O)[C@H]1[C@@H](c2ccccc2)C[C@@H]2CC[C@H]1N2C [WIN-35065-2, reference compound] |  |  |  |  | LD100 [1]: 560 mg/kg
CC(=O)Oc1ccc([N+](=O)[O-])cc1 [4NPA, 4-nitrophenyl acetate] |  |  |  |  | 37° C.-induced formation of high molecular weight CocE aggregates (CocE [2]): prevented
OB(O)c1ccccc1 [Phenylboronic acid] |  |  |  |  | Ki (CocE [3]): 250 nM; EC50 (CocE [2]): 200 nM
O=[N+]([O-])c1ccc(O)cc1 [4NP, 4-nitrophenol] |  |  |  |  | 37° C.-induced formation of high molecular weight CocE aggregates (CocE [2]): prevented
Ala328W/Y332A: cocaine hydrolyzing enzyme of Sun et al., 2002a (genetically engineered BChE) (protein, UniProt P06276 29-602, looked up, variant A328W Y332A) Cholinesterase: EDDIIIATKNGKVRGMNLTVFGGTVTAFLGIPYAQPPLGRLRFKKPQSLTKWSDIWNATKYANSCCQNIDQSFPGFHGSEMWNPNTDLSEDCLYLNVWIPAPKPKNATVLIWIYGGGFQTGTSSLHVYDGKFLARVERVIVVSMNYRVGALGFLALPGNPEAPGNMGLFDQQLALQWVQKNIAAFGGNPKSVTLFGESAGAASVSLHLLSPGSHSLFTRAILQSGSFNAPWAVTSLYEARNRTLNLAKLTGCSRENETEIIKCLRNKDPQEILLNEAFVVPYGTPLSVNFGPTVDGDFLTDMPDILLELGQFKKTQILVGVNKDEGTWFLVAGAPGFSKDNNSIITRKEFQEGLKIFFPGVSEFGKESILFHYTDWVDDQRPENYREALGDVVGDYNFICPALEFTKKFSEWGNNAFFYYFEHRSSKLPWPEWMGVMHGYEIEFVFGLPLERRDNYTKAEEILSRSIVKRWANFAKYGNPNETQNNSTSWPVFKSTEQKYLTLNTESTRIMTKLRAQQCRFWTSFFPKVLEMTGNIDEAEWEWKAGFHRWNNYMMDWKNQFNDYTSKKESCVGL |  |  |  |  | Kcat [4]: 154 min⁻¹; Km [4]: 18 µM
T172R/G173Q (protein, UniProt Q9L9D7 1-574, looked up, variant T172R G173Q) Cocaine esterase: MVDGNYSVASNVMVPMRDGVRLAVDLYRPDADGPVPVLLVRNPYDKFDVFAWSTQSTNWLEFVRDGYAVVIQDTRGLFASEGEFVPHVDDEADAEDTLSWILEQAWCDGNVGMFGVSYLGVTQWQAAVSGVGGLKAIAPSMASADLYRAPWYGPGGALSVEALLGWSALIGRQLITSRSDARPEDAADFVQLAAILNDVAGAASVTPLAEQPLLGRLIPWVIDQVVDHPDNDESWQSISLFERLGGLATPALITAGWYDGFVGESLRTFVAVKDNADARLVVGPWSHSNLTGRNADRKFGIAATYPIQEATTMHKAFFDRHLRGETDALAGVPKVRLFVMGIDEWRDETDWPLPDTAYTPFYLGGSGAANTSTGGGTLSTSISGTESADTYLYDPADPVPSLGGTLLFHNGDNGPADQRPIHDRDDVLCYSTEVLTDPVEVTGTVSARLFVSSSAVDTDFTAKLVDVFPDGRAIALCDGIVRMRYRETLVNPTLIEAGEIYEVAIDMLATSNVFLPGHRIMVQVSSSNFPKYDRNSNTGGVIAREQLEEMCTAVNRIHRGPEHPSHIVLPIIKR | 56 °C and 56.61 °C | 45.61 | 40 °C and 40.62 °C | 46 °C and 46.17 °C | 
T172R-F189K (protein, UniProt Q9L9D7 1-574, looked up, variant T172R F189K) Cocaine esterase: MVDGNYSVASNVMVPMRDGVRLAVDLYRPDADGPVPVLLVRNPYDKFDVFAWSTQSTNWLEFVRDGYAVVIQDTRGLFASEGEFVPHVDDEADAEDTLSWILEQAWCDGNVGMFGVSYLGVTQWQAAVSGVGGLKAIAPSMASADLYRAPWYGPGGALSVEALLGWSALIGRGLITSRSDARPEDAADKVQLAAILNDVAGAASVTPLAEQPLLGRLIPWVIDQVVDHPDNDESWQSISLFERLGGLATPALITAGWYDGFVGESLRTFVAVKDNADARLVVGPWSHSNLTGRNADRKFGIAATYPIQEATTMHKAFFDRHLRGETDALAGVPKVRLFVMGIDEWRDETDWPLPDTAYTPFYLGGSGAANTSTGGGTLSTSISGTESADTYLYDPADPVPSLGGTLLFHNGDNGPADQRPIHDRDDVLCYSTEVLTDPVEVTGTVSARLFVSSSAVDTDFTAKLVDVFPDGRAIALCDGIVRMRYRETLVNPTLIEAGEIYEVAIDMLATSNVFLPGHRIMVQVSSSNFPKYDRNSNTGGVIAREQLEEMCTAVNRIHRGPEHPSHIVLPIIKR | 57.23 °C | 46.81 | 38.8 °C | 48.42 °C | 
S159A (protein, Mutant CocE polypeptide) MVDGNYSVASNVMVPMRDGVRLAVDLYRPDADGPVPVLLVRNPYDKFDVFAWSTQSTNWLEFVRDGYAVVIQDTRGLFASEGEFVPHVDDEADAEDTLSWILEQAWCDGNVGMFGVSYLGVTQWQAAVSGVGGLKAIAPSMASADLYRAPWYGPGGALAVEALLGWSALIGTGLITSRSDARPEDAADFVQLAAILNDVAGAASVTPLAEQPLLGRLIPWVIDQVVDHPDNDESWQSISLFERLGGLATPALITAGWYDGFVGESLRTFVAVKDNADARLVVGPWSHSNLTGRNADRKFGIAATYPIQEATTMHKAFFDRHLRGETDALAGVPKVRLFVMGIDEWRDETDWPLPDTAYTPFYLGGSGAANTSTGGGTLSTSISGTESADTYLYDPADPVPSLGGTLLFHNGDNGPADQRPIHDRDDVLCYSTEVLTDPVEVTGTVSARLFVSSSAVDTDFTAKLVDVFPDGRAIALCDGIVRMRYRETLVNPTLIEAGEIYEVAIDMLATSNVFLPGHRIMVQVSSSNFPKYDRNSNTGGVIAREQLEEMCTAVNRIHRGPEHPSHIVLPIIKR |  |  |  |  | Km ([6]; 40 min @ 37° C.): 15.7 µM; Km ([6]; no preincubation): 43.6 µM
T172R/A193D: mutant CocE polypeptide (protein, UniProt Q9L9D7 1-574, looked up, variant T172R A193D) Cocaine esterase: MVDGNYSVASNVMVPMRDGVRLAVDLYRPDADGPVPVLLVRNPYDKFDVFAWSTQSTNWLEFVRDGYAVVIQDTRGLFASEGEFVPHVDDEADAEDTLSWILEQAWCDGNVGMFGVSYLGVTQWQAAVSGVGGLKAIAPSMASADLYRAPWYGPGGALSVEALLGWSALIGRGLITSRSDARPEDAADFVQLDAILNDVAGAASVTPLAEQPLLGRLIPWVIDQVVDHPDNDESWQSISLFERLGGLATPALITAGWYDGFVGESLRTFVAVKDNADARLVVGPWSHSNLTGRNADRKFGIAATYPIQEATTMHKAFFDRHLRGETDALAGVPKVRLFVMGIDEWRDETDWPLPDTAYTPFYLGGSGAANTSTGGGTLSTSISGTESADTYLYDPADPVPSLGGTLLFHNGDNGPADQRPIHDRDDVLCYSTEVLTDPVEVTGTVSARLFVSSSAVDTDFTAKLVDVFPDGRAIALCDGIVRMRYRETLVNPTLIEAGEIYEVAIDMLATSNVFLPGHRIMVQVSSSNFPKYDRNSNTGGVIAREQLEEMCTAVNRIHRGPEHPSHIVLPIIKR | 58.72 °C | 46.47 | 38.11 °C | 47.68 °C | 
